Test results from the supplement of paper PMC10126150.
± gives the standard deviation of the averaged measurements.

Tested on: ATP
Assay: switch fluorescence ratio, 500 uM ATP over buffer (Cy3 cluster intensity, sum of 5 cycles each) (fold (ratio)); higher = stronger signal-on switching upon ATP binding; sequences stand for … in TCGTCGGCAGCGTCAGATGTGTATAAGAGACAGTTTTTTTTTTTTTTTTTTTTTTTTT…TC
Settings: aptamer strand: ATP DNA aptamer (quencher-CACCTGGGGGAGTATTGCGGAGGAAGG + anchor), 100 nM annealed; ATP concentration: 500 uM
Method in brief: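 Clusters carrying Cy3-labelled switching strands on a modified Illumina MiSeq flow-cell were annealed to 100 nM quencher-labelled ATP aptamer and imaged in selection buffer. They were imaged again after 15 min with 500 uM ATP at 22 °C, over five buffer/ATP cycles with NaOH stripping and re-annealing in between. For each cluster, the fluorescence ratio is the summed Cy3 intensity of the target cycles divided by that of the buffer cycles, averaged per switch-domain sequence. Clusters outside 100-1000 RFU were left out.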
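Also: ATP exposure 15 min at 22 °C before imaging.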

Point of comparison: TGTGGGGGTA, switch fluorescence ratio 0.986 ± 0.034. Against it:
- TGTGACAATA — higher, 1.04 ± 0.01
- TGTGACAGGA — within error, 1.02 ± 0.057
- TGTGAGTTTT — within error, 0.974 ± 0.014
- TGTGATGCCG — within error, 0.976 ± 0.015
- TGTGATTTTG — within error, 0.998 ± 0.028
- TGTGCAGAAA — within error, 0.9899 ± 0.0059
- TGTGCGACGG — within error, 0.989 ± 0.021
- TGTGCGTCGA — within error, 1.001 ± 0.00055
- TGTGCTGGTG — higher, 1.039 ± 0.0068
- TGTGGAGAGC — within error, 0.999 ± 0.038
- TGTGGCAGTT — within error, 1.02 ± 0.027
- TGTGGGACGT — within error, 0.952 ± 0.01
- TGTGGGATAG — within error, 0.979 ± 0.029
- TGTGGGCATT — within error, 1.019 ± 0.0053
- TGTGGGGAGC — within error, 0.995 ± 0.043
- TGTGGGGTAT — higher, 1.07 ± 0.045
- TGTGGGGTCG — within error, 1.01 ± 0.058
- TGTGGGTGTT — within error, 0.961 ± 0.011
- TGTGGGTTAT — within error, 0.976 ± 0.011
- TGTGGTAAGT — within error, 1.01 ± 0.062
- TGTGGTAGCG — within error, 1.01 ± 0.018
- TGTGGTTGTT — within error, 1.02 ± 0.041
- TGTGGTTTCC — within error, 1.01 ± 0.022
- TGTGGTTTGA — within error, 1.01 ± 0.043
- TGTGTACCGG — within error, 1.01 ± 0.028
- TGTGTCTAGT — within error, 0.974 ± 0.0013
- TGTGTGAATG — within error, 1.03 ± 0.037
- TGTGTGAGGG — higher, 1.036 ± 0.0086
- TGTGTGTAAG — within error, 1.001 ± 0.0067
- TGTGTGTGTG — within error, 0.974 ± 0.017
- TGTGTTACTT — within error, 0.9988 ± 0.001
- TGTGTTAGG — within error, 1.01 ± 0.03
- TGTGTTAGTT — within error, 0.991 ± 0.024
- TGTGTTCCTC — higher, 1.08 ± 0.013
- TGTGTTGGTC — higher, 1.036 ± 0.0032
- TGTGTTGTGG — within error, 0.997 ± 0.028
- TGTGTTTCGT — within error, 1.007 ± 0.0084
- TGTGTTTGGG — within error, 0.987 ± 0.038
- TGTGTTTGGT — within error, 0.979 ± 0.021
- TGTTAATAGC — within error, 1.03 ± 0.032
- TGTTACGGCA — higher, 1.08 ± 0.041
- TGTTAGAGGC — within error, 1.03 ± 0.1
- TGTTAGGCAA — higher, 1.06 ± 0.034
- TGTTAGGTAA — within error, 1.22 ± 0.32
- TGTTAGTGTT — within error, 1.03 ± 0.029
- TGTTAGTTCT — within error, 1.02 ± 0.0089
- TGTTATAATG — within error, 1.03 ± 0.068
- TGTTATGTGC — within error, 0.968 ± 0.036
- TGTTATTTTT — within error, 1 ± 0.041
- TGTTCAAAAC — within error, 1 ± 0.086
- TGTTCAGGTG — higher, 3.38 ± 0.15
- TGTTCCGCTT — higher, 2.16 ± 0.17
- TGTTCCGGGT — within error, 0.999 ± 0.048
- TGTTCGGGTT — within error, 0.99 ± 0.015
- TGTTCTAGG — within error, 1.01 ± 0.015
- TGTTCTATAT — within error, 1.01 ± 0.05
- TGTTCTCGGA — within error, 1.006 ± 0.0097
- TGTTCTGCGA — within error, 1.43 ± 0.54
- TGTTGAAGGT — within error, 1.02 ± 0.029
- TGTTGAATGT — within error, 1.02 ± 0.03
- TGTTGAGGGG — within error, 0.964 ± 0.041
- TGTTGAGTGT — within error, 0.962 ± 0.017
- TGTTGATAGG — within error, 0.982 ± 0.02
- TGTTGATCCT — within error, 1.03 ± 0.027
- TGTTGATTGT — within error, 0.983 ± 0.013
- TGTTGCCACG — within error, 1 ± 0.0062
- TGTTGCCGTT — lower, 0.886 ± 0.057
- TGTTGCCTGG — within error, 0.978 ± 0.023
- TGTTGCTTAA — within error, 0.993 ± 0.019
- TGTTGGGACG — higher, 1.1 ± 0.039
- TGTTGGGACT — within error, 1.17 ± 0.24
- TGTTGGGCAG — within error, 0.9634 ± 0.0089
- TGTTGGGGG — within error, 0.994 ± 0.062
- TGTTGGTGC — higher, 1.04 ± 0.013
- TGTTGTAAAG — within error, 0.985 ± 0.03
- TGTTGTAGAC — within error, 0.961 ± 0.0098
- TGTTGTATTT — within error, 1.01 ± 0.022
- TGTTGTCAGG — within error, 0.99 ± 0.025
- TGTTGTCTTG — the same, 0.98616 ± 6.6e-05
- TGTTGTCTTT — within error, 1.03 ± 0.12
- TGTTGTTACA — within error, 0.99 ± 0.029
- TGTTGTTGAA — within error, 1.01 ± 0.042
- TGTTGTTGGT — within error, 1.017 ± 0.00011
- TGTTGTTGTT — within error, 1.01 ± 0.086
- TGTTGTTTAA — within error, 1.04 ± 0.086
- TGTTTAAGAG — within error, 1 ± 0.023
- TGTTTAGGTT — within error, 1.01 ± 0.071
- TGTTTATCGG — within error, 0.998 ± 0.041
- TGTTTCTCGC — within error, 1.05 ± 0.037
- TGTTTCTTTT — within error, 1.01 ± 0.024
- TGTTTGAAGG — within error, 0.995 ± 0.017
- TGTTTGACAT — within error, 0.98 ± 0.02
- TGTTTGATGG — within error, 1.01 ± 0.038
- TGTTTGGCTG — higher, 1.054 ± 0.0084
- TGTTTGGGCG — within error, 1.03 ± 0.077
- TGTTTGGGGG — within error, 1.01 ± 0.036
- TGTTTGGTGC — within error, 1.54 ± 0.8
- TGTTTGGTTA — within error, 0.995 ± 0.017
- TGTTTGGTTT — within error, 1.01 ± 0.013
